Experiment: yeast display, Sf9 membrane polyspecificity reagent, FACS + sequencing; frameworks hold sequencing errors
Method in brief: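 A synthetic nanobody library was expressed on Saccharomyces cerevisiae BJ5465 by galactose induction for 36–48 hours. The library was stained for 1 hour at 4 °C with 10% biotinylated, detergent-solubilized Sf9 membrane reagent and enriched with streptavidin microbeads before FACS. Low and high (top ~1%) gates were set on anti-HA fluorescence for expression and streptavidin fluorescence for reagent binding, and each polyreactivity label reflects the gate of origin.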

Sequence	polyreactivity (PSR sort gate)
QVQLVESGGGLVQAGGSLRLSCAASGSTFTGYAMGWYRPAPGKEREFVAAISRSGGSTYYADSVKGRFTISRDNAKNTVYLQMNSLKPEDTAVYYCNARGFTRYTVGRNYWGQGTQVTVSS	high polyreactivity
QVQLVESGGGLVQAGGSLRLRCAASGFIFWMNAMGWYRQAPGKERELVAAISIGGRTNYADSVKGRFTISRDNSKNTVYLQMNSLKPEDTAVYYCNKDYRSVYKGGGFDYWGQGTQVTVST	low polyreactivity
QVQLVESGGGLVQAGGSLRLSCDDSGRTFYPYAMGRYRHAPGKERELVAAISYRGGSTYYADSVKGRFTISRDNAKNTVYLQMNCLKPEDRAVYYCAKRGYASGSKWDYGYWGQGTQLTVSS	high polyreactivity
QVQLVESGGGLVQAGGSLRLSCAASGSILGPYAMGWYRQAPGKERELVAAISQSGARTYYADSVKGRFTISRDNAKNTVYLQMNSLKPEDTAVYYCAAQSRKGGWSAYYYWGQGTQVTVSS	high polyreactivity
QVQLVESGGCLVQAGGSLRLICAASGRTFIAKAMGWYRQAPGKERELVAVITLNGGSTYYADSVKGRFTISRDNAKSTVYLQMNSLKPEDTAVYYCAAGRYYNLRATHGYWGQGTQVTVSS	low polyreactivity
QVQLVESGGGLVQAGGSLRLSCAASGITFNYYAMGWYRQAPGKEREFVAAITRSGGRTYYADSVKGRFTISRDNAKNTVYLQMNSLKPEDTAVYYCAAGYYILYIWKFDYWGQGTQVTVSS	high polyreactivity
QVQLVESGGGLGQAGGSLRLSCAASGSIIKPYAMGWYRQAPGKERELVAAIRSSGGRTNYADSVKGRFTISRDNAKNSVYFQMNSLKPEDTGVYYCAAGYVSYWYYRYDYWGQGTQVTVSS	high polyreactivity
QVQLVESGGGLVQAGGSLRLSCAASGFIFVLYSMGWYRQAPGKERELVAGITGSTDTYYADSVKGRFTISRDNAKNTVYLQMNSLKPEDTAVYYCAAGRLRIWYDSWGQGTQVTVSS	low polyreactivity
QVQLVESGGGLVQAGGSLRLSCAASGFIYYRYAMGWYRQAPGKERELVAAISRSGGSTYYADSVKGRFTISRDNAKNTVYLQMNSLNPEDTAVYYCAARDPGGAVGAAFDSWGQCTQVTVSS	low polyreactivity
QVQLVESGGGLVQAGGSLRLSCAASASIYFPYTMGWYRQAPGKERELVARISLGGGRTYYADSVKGRFTISRDNAKNTVYLQMNSLKPEDTAVYYCAAVYYYGKWSYGYWIYEYWGQGTQVTVSS	high polyreactivity
QVQLVESGGGLVQAGGSLRLRCAASGSTFASYAMGGYRQAPGKERELVAAITRSGGSTYYADSVKGRFTISRVKAKNTVYLQMNSLKPEDTAVYYCARRAVYGIFDYWGQGTQVTVSS	high polyreactivity
QVQLVESGGGSVQAGGSLRLSCAASGFTIRTYAMGWYRQAPGKESELVAAITSSGSSTYYAYSVKGRFTISRDNAKNTVYLQMNSLKPEDTAVYYCAADAPRSYRFGYWGQGTQVTVSS	high polyreactivity
QVQLVESGGGLVQAGGRLRLSCAASGSTFQQYGMGWYRQAPGKERELVAAISGGVSTYYADSLKGLFTISRDHAKNTVYLQMYSLKPEDTAVYYCNADTSYSEWGSWYYEYDYWGQGTQVTVSS	low polyreactivity
QVQLVESGGGLVQAGGSLRLICAASGRIVEGYAMGWYRQAPGKERELDAAISSGGSTYYADSVKGRFTISRDNAKNTVYLQMNSLKPEDTAVYYCNAAHSVVSHGPGAGLEMDYWGEGTQVTVSS	low polyreactivity
QVQLVESGGGLVQAGGSLRLSCAASGITFRRYAMGWYRQAPGKERELVAAISRSGGSTRYADSVKGRFTISRDNAKNTVYLLMNSLKPEDTAVYYCAADGVPGRAVDYEYWGQGTQVTVSS	high polyreactivity
QVQLVESGGGLFHAGGRLRLSCAASGYTFRYYAMGWSRQAPGKERELVAGIDSGGGSTYYAASVKGRFTISRDNAKYTVYLQMNSLKPEDTAVYYCAVDTYSWYGEYYYWGQGTQVTVSS	high polyreactivity

Sequence	polyreactivity (PSR sort gate)
QVQLVESGGGLVQAGGSLRLSCAASGRIFGYTMGWYRQAPGKERELVAAISKSGGSTYYADSVKGRFTISRDNAKNTVYLQMNSLKPEDTAVYYCAAEYGYGKRAYDSWGQGTQVTVSS	high polyreactivity
QVHLVESGGGLVQAGGSLRLSSADSGRTFAYNAMRWYRPAPGKERELVAAITWSGDSTYYADSVKGRFTISRDNAKNTVYFQMNSLKPEDTEVYYCAADYFGGPSYEFDYWGQGTQVTVSS	low polyreactivity
QVQLVESGGGLVQAGGSLRLSCAASGSTFGWYAMGWYRQAPGIERELVATITSDSSTYYADSVKGRFTISRDNAKNTVYLQMNSLKPQDTAVYYCAATNYWIEYAPGYGLYSVEDDYWGQGTQVTVSS	low polyreactivity
QVQLVESGGGLDQAGGSLRLSCAASGGTFSNYAMGWYRQATGKERELVAAISESGGSTYYADSVKGRFTISRDNAKNTVYLQMNSLKPEDTAVYYCAVGTRFYVPRRFDYWGQGSQVTVSS	high polyreactivity
QVQLVESGGGLVQAGGSLRLSCAASGGTFYGYAAMGWYRQAPGKERELVAAISRSGGRTYYADSVKGRFTISRDNAKNTVYLQMNSLKPEDTAVYYCAARRAYSRPPRDYWGQCTQVTVSS	high polyreactivity
QVQLVESGGGLVQAGGSLRLSCAASGIIFYYNAMGWYRQAPGKERELVASIRWRGGSTYYADSVKGRFTISRDNAKNTVYLQMNSLKPEDTAVYYCNVVKYVYIYSYWEYYYWGQGTQVTVSS	low polyreactivity
QVQLVESGGGLVQAGGSLRLSCASSGRTIGVYAMGWYRQAPGKERELVAAISWSGGTTYYADSVKGRFTISRDNAKNTVYLQMNSLKPEDTAVYYCAADSYTEVDYWGQGTQVTVSS	low polyreactivity
QVQLVESGGGLVQAGGSLRLSCAASGFIIEVNAMGWYRQAPGKERELVARIDWSGGSTYYADSVKGRFTISRDNAKNTVYLQMNSLKPEDTAVYYCNADWTYADPNEYGYWGQGTQVTVSS	low polyreactivity
QVQLVESVGGLVQAGGSLRLSCAASGSTYDHNAMGWSRHAPGKERELVAAISSDGSTNYADSVKGRFTISRDNAKNTVYLQMNSLKPEDTGVYYCNADGVYLGDYEYWGQGTQVTVSS	low polyreactivity
QVQLVESGGGLVQAGGSLRLSCAASGRIFKQYTMGWYRQAPGKERELVAAITSSGAGTFYADSVKGRFTISRDNAKNTVYLQMNSLKPEDTAVDYCAAAYYYASRMDYWGQGTQVTVSS	high polyreactivity
QVQLVESGGGLVQAGGSLRLSCAASGLTFVTYAKGWYRQAPGKERELVAAISYSGGSTYYADSVKGRFTISRDNAKNTVYLQMNSLKPEDTAVYYCNARSPQPDGRPPYNYWGQGTQVTVSS	high polyreactivity
QVQIVESGGGLVQAGGSLRLTCAASGFTFTDYAMGWYRQAPGIERELVAVITYDSTYYADSVKGRFTISRDNAKNTVSLHMNSLKPEDTAVYYCAADSYDWGEFDYWGQGTQVTVSS	low polyreactivity
QDQLVESGGGLVQAGGSLRLSCAASGRIFPGNAMGWYIHEPGKERELVADITSGGSTNYADSVNGRFTISRDNAKNSVYLQMNSLKPEDTAVYYCAVGQIYQTSDHRLQYVYWGQGTQVTVSS	low polyreactivity
QVQLVESGGGLVQAGGSLRLSCAASGSIFSSNTMGWYRPAPGKERELVAAITSGGGTYYADSVKGRFTISRDNAKNTVYLQMNSLKPEDTAVYYCAAQRVYKSSPSYDYWGQGTQVTVSS	low polyreactivity
QVQLVESGGGLVHAGGSLRLSCAASGSTFRLYSMGWYRQAPGKERELVAAISSNGVRTYYADSVKGRFTISRDNAKNTVYLQMNSLKPEDTAVYYCAARVYPAYPRGYDYWGQGTQVTVSS	high polyreactivity

— the nanobody polyreactivity screen of Harvey et al. (2022)
